Results: paper PMC10105715

Target: non-natural gp130:IL-11R:LIFR cytokine receptor complex on Ba/F3-gp130:IL-11R:LIFR cells (UniProt P40189)
Sequence (P40189 23-918, chain 1 of 3): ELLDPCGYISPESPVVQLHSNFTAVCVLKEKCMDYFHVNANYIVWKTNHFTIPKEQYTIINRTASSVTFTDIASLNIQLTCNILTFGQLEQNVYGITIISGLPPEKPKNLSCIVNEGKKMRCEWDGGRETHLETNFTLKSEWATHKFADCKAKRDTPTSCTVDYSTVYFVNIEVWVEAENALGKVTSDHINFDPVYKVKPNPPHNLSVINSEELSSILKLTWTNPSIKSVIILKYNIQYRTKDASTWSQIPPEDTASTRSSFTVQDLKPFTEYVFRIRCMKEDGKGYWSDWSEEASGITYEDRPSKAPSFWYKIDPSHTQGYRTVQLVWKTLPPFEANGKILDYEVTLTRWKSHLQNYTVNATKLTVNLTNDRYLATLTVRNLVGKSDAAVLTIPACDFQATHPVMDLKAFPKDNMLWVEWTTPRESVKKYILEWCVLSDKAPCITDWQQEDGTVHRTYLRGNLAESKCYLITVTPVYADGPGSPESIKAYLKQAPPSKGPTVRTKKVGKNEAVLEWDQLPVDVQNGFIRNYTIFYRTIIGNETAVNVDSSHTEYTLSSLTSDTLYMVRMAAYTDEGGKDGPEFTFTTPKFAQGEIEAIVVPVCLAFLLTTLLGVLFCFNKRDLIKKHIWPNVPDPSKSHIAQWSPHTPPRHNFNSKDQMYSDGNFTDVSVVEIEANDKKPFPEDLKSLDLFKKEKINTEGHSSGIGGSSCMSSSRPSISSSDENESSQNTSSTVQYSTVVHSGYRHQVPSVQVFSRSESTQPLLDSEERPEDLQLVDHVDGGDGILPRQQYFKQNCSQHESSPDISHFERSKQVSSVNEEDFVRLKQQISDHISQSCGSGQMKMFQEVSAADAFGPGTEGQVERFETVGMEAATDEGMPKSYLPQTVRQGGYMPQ
Sequence (Q14626 23-422, chain 2 of 3, further chain): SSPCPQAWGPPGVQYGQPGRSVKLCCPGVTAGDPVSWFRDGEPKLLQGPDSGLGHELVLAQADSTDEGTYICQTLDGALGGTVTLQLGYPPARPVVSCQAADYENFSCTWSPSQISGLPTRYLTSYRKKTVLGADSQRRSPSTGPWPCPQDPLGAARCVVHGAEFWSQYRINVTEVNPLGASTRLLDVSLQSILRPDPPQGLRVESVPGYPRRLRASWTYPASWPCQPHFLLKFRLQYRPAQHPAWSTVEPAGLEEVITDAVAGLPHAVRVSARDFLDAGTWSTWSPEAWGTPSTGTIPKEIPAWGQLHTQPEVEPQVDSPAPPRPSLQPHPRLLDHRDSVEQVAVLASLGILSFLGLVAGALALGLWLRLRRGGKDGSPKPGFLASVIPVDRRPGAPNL
Sequence (P42702 45-1097, chain 3 of 3, further chain): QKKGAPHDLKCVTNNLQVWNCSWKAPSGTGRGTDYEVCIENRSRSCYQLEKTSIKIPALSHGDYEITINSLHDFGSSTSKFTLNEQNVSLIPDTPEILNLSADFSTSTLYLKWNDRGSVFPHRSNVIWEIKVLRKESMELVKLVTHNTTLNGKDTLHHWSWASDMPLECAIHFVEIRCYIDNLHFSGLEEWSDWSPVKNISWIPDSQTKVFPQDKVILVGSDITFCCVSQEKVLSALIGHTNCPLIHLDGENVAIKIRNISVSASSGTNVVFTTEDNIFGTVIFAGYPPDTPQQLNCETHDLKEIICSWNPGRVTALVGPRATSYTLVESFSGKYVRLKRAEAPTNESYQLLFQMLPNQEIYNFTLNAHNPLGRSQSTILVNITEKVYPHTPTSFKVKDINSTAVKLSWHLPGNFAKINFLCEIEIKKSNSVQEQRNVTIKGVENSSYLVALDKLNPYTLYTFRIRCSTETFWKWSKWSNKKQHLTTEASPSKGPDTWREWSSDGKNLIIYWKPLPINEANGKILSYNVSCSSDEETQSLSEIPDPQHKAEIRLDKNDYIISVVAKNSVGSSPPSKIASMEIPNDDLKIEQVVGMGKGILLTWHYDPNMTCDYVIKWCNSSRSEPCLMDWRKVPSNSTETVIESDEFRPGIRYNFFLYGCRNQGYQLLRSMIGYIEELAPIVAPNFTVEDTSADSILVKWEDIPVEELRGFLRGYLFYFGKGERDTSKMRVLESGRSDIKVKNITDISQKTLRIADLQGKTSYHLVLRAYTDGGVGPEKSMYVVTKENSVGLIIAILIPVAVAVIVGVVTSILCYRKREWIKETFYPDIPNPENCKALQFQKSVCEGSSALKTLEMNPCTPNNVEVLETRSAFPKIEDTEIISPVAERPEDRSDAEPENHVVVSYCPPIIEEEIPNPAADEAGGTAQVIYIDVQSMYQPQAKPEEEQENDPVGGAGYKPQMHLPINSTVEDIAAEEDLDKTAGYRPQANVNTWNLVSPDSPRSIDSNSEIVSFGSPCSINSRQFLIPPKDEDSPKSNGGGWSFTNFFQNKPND

## cytokimera GIL-11 (from UniProt P20809 22-57; P15018 64-88; P20809 73-110; P15018 119-138; P20809 129-161; P15018 172-189; P20809 180-199) (ligand)
  proliferation of Ba/F3-gp130:IL-11R:LIFR cells (CellTiter Blue), GIL-11 0.0005–500 ng/ml; EC50: 1.44 ng/mL
